# Source: patent US20230295310A1 (ABCELLERA BIOLOGICS, published 2023)
# Where a chain is given by its changes, count along the chain named.
# B1: GOMP001_bsAb_013 (bispecific antibody, human IgG1, kappa, L234A L235A)
# heavy 1: QVQLVQSGAEVKKPGASVKVSCKASGYTFTSHWMHWVRKAPGQGLEWIGEFNPSNGRTNYNEEFKSKATMTVDTSTNTAYMELSSLRSEDTAVYYCASRDYDYDGRYFDYWGQGTLVTVSSASTKGPSVFPLAPSSKSTSGGTAALGCLVADYFPEPVTVSWNSGALTSGVHTFPAVLQSSGLYSLSSVVTVPSSSLGTQTYICNVNHKPSNTKVDEKVEPKSCDKTHTCPPCPAPEAAGGPSVFLFPPKPKDTLMISRTPEVTCVVVDVSHEDPEVKFNWYVDGVEVHNAKTKPREEQYNSTYRVVSVLTVLHQDWLNGKEYKCKVSNKALPAPIEKTISKAKGQPREPQVYTLPPSREEMTDNQVSLTCLVKGFYPSDIAVEWESNGQPENNYKTTPPVLMSDGSFFLASKLTVDKSRWQQGNVFSCSVMHEALHNHYTQKSLSLSPG
# light 1: RIQMTQSPSSLSASVGDRVTITCSASSSVTYMYWYQDKPGKAPKLLIYDTSNLASGVPSRFSGSGSGTDYTFTISSLQPEDIATYYCQQWSSHIFTFGQGTKVEIKRTVAAPSVFIFPPSDKQLKSGTARVVCLLNNFYPREAKVQWKVDNALQSGNSQESVTEQDSKDSTYSLSSTLTLSKADYEKHKVYACEVTHQGLSSPVTKSFNRGEC
# heavy 2: QVQLVQSGAEVKKPGASVKVSCKASGYTFTSYDINWVRYATGQGLEWMGWMNPKSGKTGYAQKFQGRITMTRNTPISTVYMDLSSLRSEDTAVYYCAREGHYDFWTGYYSFDYWGRGTLVTVSSASTKGPSVFPLAPSSKSTSGGTAALGCLVKDYFPEPVTVSWNSGALTSGVHTFPAVLQSSGLYSLSSVVTVPSSSLGTQTYICNVNHKPSNTKVDKKVEPKSCDKTHTCPPCPAPEAAGGPSVFLFPPKPKDTLMISRTPEVTCVVVDVSHEDPEVKFNWYVDGVEVHNAKTKPREEQYNSTYRVVSVLTVLHQDWLNGKEYKCKVSNKALPAPIEKTISKAKGQPRRPRVYTLPPSREEMTKNQVSLVCLVKGFYPSDIAVEWESNGQPENNYKTTPPVLDSDGSFFLYSVLTVDKSRWQQGNVFSCSVMHEALHNHYTQKSLSLSPG
# light 2: DIQMTQSPSSLSASVGDRVTITCRASQGIRNDLGWYQRTPGDAPKRLIYAASSLQSGVPSRFSGSGSGTEFTLTISSLQPEDFATYYCLQHYSYPYTFGQGTKLEIKRTVAAPSVFIFPPSDEQLKSGTASVVCLLNNFYPREAKVQWKVDNALQSGNSQESVTEQDSKDSTYSLSSTLTLSKADYEKHKVYACEVTHQGLSSPVTKSFNRGEC
# B2: GOMP001_bsAb_014 (bispecific antibody, human IgG1, kappa, L234A L235A)
# heavy 1: B1 heavy 2
# light 1: B1 light 2
# heavy 2: QVQLVQSGAEVKKPGASVKVSCKASGYTFTSHWMHWVRYAPGQGLEWIGEFNPSNGRTNYNEKFKSKATMTVDTSTNTAYMELSSLRSEDTAVYYCASRDYDYDGRYFDYWGRGTLVTVSSASTKGPSVFPLAPSSKSTSGGTAALGCLVKDYFPEPVTVSWNSGALTSGVHTFPAVLQSSGLYSLSSVVTVPSSSLGTQTYICNVNHKPSNTKVDKKVEPKSCDKTHTCPPCPAPEAAGGPSVFLFPPKPKDTLMISRTPEVTCVVVDVSHEDPEVKFNWYVDGVEVHNAKTKPREEQYNSTYRVVSVLTVLHQDWLNGKEYKCKVSNKALPAPIEKTISKAKGQPRRPRVYTLPPSREEMTKNQVSLVCLVKGFYPSDIAVEWESNGQPENNYKTTPPVLDSDGSFFLYSVLTVDKSRWQQGNVFSCSVMHEALHNHYTQKSLSLSPG
# light 2: B1 light 1 with R1D, D37R, K41D, K122E, R130S
# Biological target: human EGFR, C-terminal eGFP-tagged, on CHO-K1 cells (human, UniProt P00533 25-1210)
# Test: cell-based or functional assay
Binder,"EC50 CHO-K1 EGFR Low (nM); T cell activation bioassay, luciferase [nM]","EC50 CHO-K1 EGFR Med (nM); T cell activation bioassay, luciferase [nM]"
B1,1.31,0.239
B2,0.238,0.0722
